Measurements as given in publication PMC3082182 (The Journal of Cell Biology, 2011).

Biological target: GST–FL Rngo (Drosophila melanogaster, UniProt Q9VXF9 1-458)
Test: pull-down

binding result: binds
B1: FL MBP-Rpn10 (natural protein)
chain: MVLESTMICFDNSDFQRNGDYFPTRLIVQRDGINLVCLTKLRSNPENNVGLMTLSNTVEVLATLTSDAGRIFSKMHLVQPKGEINLLTGIRIAHLVLKHRQGKNHKMRIVVFVGSPINHEEGDLVKQAKRLKKEKVNVDIVSFGDHGNNNEILTAFINALNGKDGTGSHLVSVPRGSVLSDALLSSPIIQGEDGMGGAGLGGNVFEFGVDPNEDPELALALRVSMEEQRQRQESEQRRANPDGAPPTGGDAGGGGGVSGSGPGNEESAGAENEANTEEAMLQRALALSTETPEDNLPDFANMTEEEQIAFAMQMSMQDAPDDSVTQQAKRPKTDEANAPMDVDEDYSEVIGDPAFLQSVLENLPGVDPQSEAVRDAVGSLNKDKDKKSDGKDSQKK
